The results in this text go back to the nanobody polyreactivity screen of Harvey et al. (2022).

A short description of this data set: yeast display, Sf9 membrane polyspecificity reagent, FACS + sequencing; frameworks hold sequencing errors. The procedure, abridged:
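Galactose induction of a Saccharomyces cerevisiae BJ5465 synthetic nanobody display library ran 36–48 hours. The cells were then stained for 1 hour at 4 °C with 10% biotinylated, detergent-solubilized Sf9 membrane reagent, pulled down on streptavidin microbeads and FACS-sorted into low and high (top ~1%) gates on expression and reagent-binding fluorescence. Labels for polyreactivity follow the gate of origin.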
For “QVQLVESGGGLVQAGGSLRLSCAASGITFDYYAMGWYRQAPGKERELVAAISYSGGSTYYADSVKGRFTISRDNAKNTVYVQMNSLKPEDTAVYYCAAETFTISSDYYYWGQGTQVTVSS”, the “polyreactivity (PSR sort gate)” value is reported as “low polyreactivity”. With “QVQLVESGGGLVQAGGSLRLSCAASGITFEGYAMRWYRQAPGKERELVAAITGSGSTTYYADSVKGRFTISRDNAKNTVYLQMNSLKPEDTAVYYCAADVSYKLYWGQGTQVTVSS”, the “polyreactivity (PSR sort gate)” value is given as “low polyreactivity”. As for “QVQLVESGGGLVQAGGSLRLSCAASGITFEHYAMGWYREAPGKERELVAAINRSGDNTYYADSVKGRFTISRDNAKNTVYLQMNSLKPEDTAVNYCNTVELYWRGYDYWGQGTQVTVSS”, the “polyreactivity (PSR sort gate)” value is recorded as “high polyreactivity”. In the case of “QVQLVESGGGLVQAGGSLRLSCAASGITFEKYAMGGYRQAPGKERELVAAITSSGGSTYYADSVKGRFTISRDNAKNTVYLQMNSLKPEDTAVYYCKARYYYADRTSGGYYYWGQGTQVTVSS”, the “polyreactivity (PSR sort gate)” value is “high polyreactivity”. As for “QVQLVESGGGLVQAGGSLRLSCAASGITFEPYAMGWYRQAPGKEREFVADITWSGGSTYYADSVKGRFTISRDNAKNTVYLQMNSLKPEDTAVYYCAADGWTSYWSDYWGQGTQVTVAS”, the “polyreactivity (PSR sort gate)” value is given as “low polyreactivity”. As for “QVQLVESGGGLVQAGGSLRLSCAASGITFERNGKGWYRQAPGKEWELVAAIRSGGSTYYADSVKGRFTISRDNAKNTVYLQMNSLKPEDTAVYYCAAVTQGGYTYLGDYWGQGTQVTVSS”, the “polyreactivity (PSR sort gate)” value is given as “low polyreactivity”.

Take “QVQLVESGGGLVQAGGSLRLSCAASGITFFAYAMGWYRQPPGKERELVAAISSGGSTNYADSVKGRFTISRDNAKNTVYLQMNSLKPEDTAVYYCAAVRSDLGEEGYAGYVYWGQGTQVTVSS”: the “polyreactivity (PSR sort gate)” value is given as “low polyreactivity”. For “QVQLVESGGGLVQAGGSLRLSCAASGITFFENAMGWYRQAPGKERELVASISSSGGSTYYADSVKGRFTISRDNAKNTVYLQMNSLKPEDTAVYYCAARYYSQKSYIGFRPGYEYWGQGTQVTVSS” the value was “low polyreactivity”. With “QVQLVESGGGLVQAGGSLRLSCAASGITFFGYAMGWYRQAPGKERELVAGISRSTGRTYYADSVMGRFTISRDNAKYTVYLQMNSLKPEDTAVYYCDARATRSLSRYMDYWGQGTQVTVSS”, the “polyreactivity (PSR sort gate)” value was “high polyreactivity”. For “QVQLVESGGGLVQAGGSLRLSCAASGITFFRYTMGWYRQAPGKERELVAAINIRGTRTYYADSVKGRFTISRDNAKNTVYLQMNSLKPEDTAVYYCAAGYAYRYSGLSYDVDYWGQGTQVTVSS”, the “polyreactivity (PSR sort gate)” value is “high polyreactivity”. With “QVQLVESGGGLVQAGGSLRLSCAASGITFFTYAMGWYRQAPGKEREFVATISYGGGSTYYADSVKGRFTISRDNAKNTVYLQMNSLKPEDTAVYYCNAEGYVPTYFQHYAYWGQGTQVTVSS”, the “polyreactivity (PSR sort gate)” value is recorded as “low polyreactivity”. With “QVQLVESGGGLVQAGGSLRLSCAASGITFFYNAMGWSRQAPGKERELVADITNSGSTYYADSVKVRFTISRDNAKNTVYLQMNSLKPEDTAVYDCAAGQAYDFFVYYPDDYWGQGTQVTVSS”, the “polyreactivity (PSR sort gate)” value is “low polyreactivity”. Consider “QVQLVESGGGLVQAGGSLRLSCAASGITFGANAMGWYRQAPGKERELVADITWSGGDTYYADSVKGRFTISRDNAKNTVYLQMNSLKPEDTAVYYCNALQPGLGSPLGEYDYWGQGTQVTVSS”, for which the “polyreactivity (PSR sort gate)” value is on record as “low polyreactivity”. “QVQLVESGGGLVQAGGSLRLSCAASGITFGCNAMGWYRQAPGKEREFVAAITFSDGSTRYADSVKGRFTISRDNAKNTVYLQMNSLKPEDTAVYYCAADTWSDKYDYWGQGTQVTVSS”: the “polyreactivity (PSR sort gate)” value was “low polyreactivity”. Take “QVQLVESGGGLVQAGGSLRLSCAASGITFGDNAMGWYRQAPGKERELVAAITLSDVDTYADSVKGRFTISRDNAKNTVYLQMNSLKPEDTAVYYCAADYYAHQDYRFDYWGQGTQVTVSS”: the “polyreactivity (PSR sort gate)” value is given as “low polyreactivity”. With “QVQLVESGGGLVQAGGSLRLSCAASGITFGFNAMGWYRQAPGKERELVAAIRWGSGRTYYADSVKGRFTISRDNAKNTVYLQMNSLKPEDTAVYYCAAAPTTGKRPGYYYWGQGTQVTVSS” the entry was “high polyreactivity”; with “QVQLVESGGGLVQAGGSLRLSCAASGITFGFYTMGWYRQAPGKERELVAAITSGGSTSYADSVKGRFTISRDNAKNTVYLQMNSLKPEDTAVYYCAADYLNPFPPYQYWKQSYDYWGQGTQVTVSS”, “low polyreactivity”.

For “QVQLVESGGGLVQAGGSLRLSCAASGITFGHYAMGWYRQAPGKERELVAAINFSGGSTYYADSVKGRFTISRDNAKNTVYLQMNSLKPEDTAVYYCAAKYSRSLRYPWYNYWGQGTQVTVSS”, the “polyreactivity (PSR sort gate)” value is on record as “high polyreactivity”. For the sequence “QVQLVESGGGLVQAGGSLRLSCAASGITFGLYSMGWYRQAPGKQRELVASISQSGGSTYYADSVKGRFTISRDNAKNTVYLQMNSLKPEDTAVYYCNARRRFWDFSTRGYDSWGQGTQVTVSS”, the “polyreactivity (PSR sort gate)” value is “high polyreactivity”.

On to “QVQLVESGGGLVQAGGSLRLSCAASGITFGNYAMGWYRQAPGKARELVAAITGSGGRTYYADSVKGRFTISRDNANNTVYLQMNRLKPEYTAVYYCNRRQYGRKKQYDYWGQGTQVTVSS”, for which the “polyreactivity (PSR sort gate)” value is reported as “high polyreactivity”. Take “QVQLVESGGGLVQAGGSLRLSCAASGITFGNYAMGWYSQAPGKERELVASFSWNVGSTYYADSVKGRFTISRDNAKNTVYLQMNSLKPEDTAVYYCARGYDRPRVATFHRFDYWGQGTQVTVSS”: the “polyreactivity (PSR sort gate)” value is reported as “low polyreactivity”. “QVQLVESGGGLVQAGGSLRLSCAASGITFGRNTKGWYRQAPGKERELVAAIDSGGNTYADSVKGRFTISRDNAKNTVYLQMNSLKPEDTAVYYCAADSYPAYLGFVGFDYWVQGTQVTVSS”: the “polyreactivity (PSR sort gate)” value was “low polyreactivity”.

Take “QVQLVESGGGLVQAGGSLRLSCAASGITFGRNTKGWYRQAPGKERELVAAIDSGGNTYADSVKGRFTISRDNAKNTVYLQMNSLKPEDTAVYYCNAGYVHSFDYWGQGTQVTVSS”: the “polyreactivity (PSR sort gate)” value is on record as “low polyreactivity”. With “QVQLVESGGGLVQAGGSLRLSCAASGITFGRNTMGWYRQAPGKERELVAAIDSGGNTYAVSVKGRFTISRDNAKNTVYLQMNSLKPEDTAVYYCAVDGGEYSYYGTYDYWGQGTQVTVSS” the entry was “low polyreactivity”. With “QVQLVESGGGLVQAGGSLRLSCAASGITFGRNTMGWYRQAPGKERELVAAITYRSGRTYYADSVKGRFTISRDTAKNTVYLQMNILKPEDTAVYYCNTVSPYYDYDYWGQGTQVTVSS” the entry was “high polyreactivity”; with “QVQLVESGGGLVQAGGSLRLSCAASGITFGRYAMGWYRQAPGKERELVAAISWSGGSTYYADSVKGRFTLSRDNAKNTVYLQMNSLKPEDTAVYYCAVEWYYTSYHIRFYRDNYWGQGTQVTVSS”, “high polyreactivity”. As for “QVQLVESGGGLVQAGGSLRLSCAASGITFGRYAMGWYRQAPGKERELVAAITTRGGSTYYADSVKGRFTISRDNAKNTVYLQMNSLKPEDTAVYYCAADYRWAGRYYYWGQGTQVTVSS”, the “polyreactivity (PSR sort gate)” value is on record as “high polyreactivity”. In the case of “QVQLVESGGGLVQAGGSLRLSCAASGITFGWNAMGWYRPAPGKERELVAAITEDGDSTYYADSVKGRFTISRDNAMNTVYLQMNSLKPEDTAGYYCAAEYYDVYTYVQYDSWGQGTQVTVSS”, the “polyreactivity (PSR sort gate)” value is on record as “high polyreactivity”. For the sequence “QVQLVESGGGLVQAGGSLRLSCAASGITFHRYAMGWYRQAPGKERELVAAISGSGGNTYYADSVKGRFTISRDNAKNTVYLQMNILKPEDTAVYYCAAYPSWYVYPKYYYWGQGTQVTVSS”, the “polyreactivity (PSR sort gate)” value is “high polyreactivity”. On to “QVQLVESGGGLVQAGGSLRLSCAASGITFHRYAMGWYRQAPGKERELVAAITKRGGSTNYADSVKGRFTISRDNAKNTVYLQMNSLKPEDTAVYYCNARSTWPSGRYAHYRRYYYWGQGTQVTVSS”, for which the “polyreactivity (PSR sort gate)” value was “high polyreactivity”. For the sequence “QVQLVESGGGLVQAGGSLRLSCAASGITFHWYAMGWYRQAPGKERELVAAITSSGDSTFYADSVKGRFTISRDNAKNSVYLQMNSLKPEDTAVYYCAVDVYVGYWGRLYYWGQGTQVTVSS”, the “polyreactivity (PSR sort gate)” value is listed as “low polyreactivity”. Take “QVQLVESGGGLVQAGGSLRLSCAASGITFIPNAMGWYRQAPGKERELVAAISISGGRTYYADSVKGRFTISRDNAKNTVYLQMNSLKPEVTAVYYCAVDSWSRVQGWLAHNYDYWGQGTQVTVSS”: the “polyreactivity (PSR sort gate)” value is listed as “low polyreactivity”.

In the case of “QVQLVESGGGLVQAGGSLRLSCAASGITFIRYAMGWYRQAPGKERELVAAIDWDGSSTYYADSVKGRFTISRDNAKNTGYLQMNSLKPEDTSVYYCNTDYTGPDGTDDYDYWGQGTQVTVSS”, the “polyreactivity (PSR sort gate)” value is on record as “low polyreactivity”. Take “QVQLVESGGGLVQAGGSLRLSCAASGITFIRYAMGWYRQAPGKERELVAVITRSGGRTYYADSVKGRFTISRDNAKNTVYLQMNILKPEDTAVYYCAARAYGYDEYEYWGQGTQVTVSS”: the “polyreactivity (PSR sort gate)” value is given as “high polyreactivity”. As to “QVQLVESGGGLVQAGGSLRLSCAASGITFIYYAMGSYRQAPGKERELVAAISKSGGRTYYADSVKGRFTISRDNAKNTVYLQMNSLKPEDSAVYYCNKLVGDDTSLYDYWGQGTQVTVSS”, the “polyreactivity (PSR sort gate)” value was “high polyreactivity”. For “QVQLVESGGGLVQAGGSLRLSCAASGITFIYYMGWYRQAPGKERELVAAITWSGGSTYYADSVKGRFTISRDNAKNTVLLQMNSLKPVDNAVYYCAAVRRAEEYDYWGQGTQVTVSS” the value was “low polyreactivity”; for “QVQLVESGGGLVQAGGSLRLSCAASGITFKANAMGWYRQAPGKERELVAAIRQNGGDTYYADSVKGRFTISRDNAKNTVYLQMNSLKPEDTAVYYCNARLRGAGGYTFYYWGQGTQVTVSS”, “high polyreactivity”. In the case of “QVQLVESGGGLVQAGGSLRLSCAASGITFKGYTMGWYRQAPGTERELVATISRGGRTYADSVKGRFTISRDNAKNTVYLQMNSLKPEDTAVYYCAADKYWAQNDYWGQGTQVTVSS”, the “polyreactivity (PSR sort gate)” value is listed as “low polyreactivity”.

For “QVQLVESGGGLVQAGGSLRLSCAASGITFKSYDMGWYRQAPGKERELVAAITSGVSTHYADSVKGRFTISRDNAKNTVYLQMNSLKPEDTAVYYCAADYTWYYPYWIMDYWGQGTQVTVSS”, the “polyreactivity (PSR sort gate)” value is “low polyreactivity”. “QVQLVESGGGLVQAGGSLRLSCAASGITFKWNDMGWYRQAPGKEREFVAAITGSTGSTFYAGSVKGRFTISRDNAKNTVYLQMNSLKPEDTAVYYCAAGPWFYYWGQGTQVTVSS”: the “polyreactivity (PSR sort gate)” value was “low polyreactivity”.

“QVQLVESGGGLVQAGGSLRLSCAASGITFKYYGMGWYRQAPGKERELVAAISWSGASTYYADSVKRRFTISRDNAKNTVYLQMNSLKPEDTAVYYCAAVRRRGQRGRLDYWGQGTQVTVSS”: the “polyreactivity (PSR sort gate)” value is reported as “high polyreactivity”.
